In publication PMC4456606, “A conserved histidine modulates HSPB5 structure to trigger chaperone activity in response to stress-related acidosis” (eLife, 2015):
Blank lines part the entries; values can stand above or below the binder they belong to.

B4: WT-HSPB5 (full-length HSPB5, alphaB-crystallin) (natural protein, human, UniProt P02511 1-175, looked up)
chain: MDIAIHHPWIRRPFFPFHSPSRLFDQFFGEHLLESDLFPTSTSLSPFYLRPPSFLRAPSWFDTGLSEMRLEKDRFSVNLDVKHFSPEELKVKVLGDVIEVHGKHEERQDEHGFISREFHRKYRIPADVDPLTITSSLSSDGVLTVNGPRKQVSGPERTIPITREEKPAVTAAPKK
notes: HSPB5 (alphaB-crystallin), human, full length; Forms polydisperse oligomers; also called αB-crystallin; source: expressed and purified as described previously (Jehle et al., 2009)
B6: H104K-HSPB5 (full-length HSPB5 with His-104 replaced by Lys) (natural protein, human, UniProt P02511 1-175, looked up)
chain: MDIAIHHPWIRRPFFPFHSPSRLFDQFFGEHLLESDLFPTSTSLSPFYLRPPSFLRAPSWFDTGLSEMRLEKDRFSVNLDVKHFSPEELKVKVLGDVIEVHGKKEERQDEHGFISREFHRKYRIPADVDPLTITSSLSSDGVLTVNGPRKQVSGPERTIPITREEKPAVTAAPKK
notes: HSPB5 (alphaB-crystallin), human, full length, with H104K; source: growth and purification similar to that of wild-type proteins (Jehle et al., 2009)
B7: H104Q-HSPB5 (full-length HSPB5 with His-104 replaced by Gln) (natural protein, human, UniProt P02511 1-175, looked up)
chain: MDIAIHHPWIRRPFFPFHSPSRLFDQFFGEHLLESDLFPTSTSLSPFYLRPPSFLRAPSWFDTGLSEMRLEKDRFSVNLDVKHFSPEELKVKVLGDVIEVHGKQEERQDEHGFISREFHRKYRIPADVDPLTITSSLSSDGVLTVNGPRKQVSGPERTIPITREEKPAVTAAPKK
notes: HSPB5 (alphaB-crystallin), human, full length, with H104Q; source: growth and purification similar to that of wild-type proteins (Jehle et al., 2009)

Tests used:
[1] = target: the molecule itself; assay: ITC; dilution ITC, 1 mM WT-ACD, dimer to monomers; 25°C, pH 6.5, 50 mM sodium phosphate, 100 mM NaCl
[2] = target: the molecule itself; assay: ITC; dilution ITC, 1 mM WT-ACD, dimer to monomers; 25°C, pH 7.5, 50 mM sodium phosphate, 100 mM NaCl
[3] = target: the molecule itself; assay: ITC; dilution ITC, 1 mM WT-ACD, dimer to monomers; 37°C, pH 7.5, 50 mM sodium phosphate, 100 mM NaCl
[4] = target: the molecule itself; assay: 15N-CPMG relaxation dispersion NMR; 700 and 200 μM ACD, pH 7.5, 37°C; global fit of dimer interface residues; rate constants worked out with the KD of 36 μM from ITC; dimer to monomers
[5] = target: the molecule itself; assay: 1H-15N HSQC NMR; 200 μM ACD, pH 7.5, 22°C, NMR buffer; populations of dimer and monomer peaks; dimer to monomers
[6] = target: the molecule itself; assay: SEC-MALS; 40 μM subunits, pre-incubated at 37°C for 30 min; 50 mM sodium phosphate pH 7.5, 100 mM NaCl, 1 mM DTT; size of the oligomers
[7] = target: the molecule itself; assay: SEC-MALS; 40 μM subunits, equilibrated at 37°C for at least 60 min; 50 mM sodium phosphate pH 6.5, 100 mM NaCl, 1 mM DTT; size of the oligomers
[8] = target: B7; assay: SEC-MALS; HSPB5 (40 μM subunits) pre-incubated with αLac (240 μM in the methods, 120 μM in the legend) at 37°C, pH 7.5, 10 min, then 50 mM DTT for 50 min, filtered and injected; SDS-PAGE of peak fractions; conditions: both partners purified
[9] = target: B6; assay: as above; conditions: both partners purified
[10] = target: B4; assay: SEC-MALS; WT- and H104K-HSPB5 incubated together at ratios 1:0, 2:1, 1:1, 1:2, 0:1; mixed oligomers; conditions: both partners purified

B1: HSPB5-ACD (alpha-crystallin domain of HSPB5, residues 64-152) (domain or fragment, human, UniProt P02511 64-152, looked up)
chain: GLSEMRLEKDRFSVNLDVKHFSPEELKVKVLGDVIEVHGKHEERQDEHGFISREFHRKYRIPADVDPLTITSSLSSDGVLTVNGPRKQV
notes: HSPB5 (alphaB-crystallin), human, alpha-crystallin domain, residues 64-152; 15N- or 13C,15N-labelled for the NMR experiments; also called WT-ACD; WT-HSPB5-ACD; source: expressed and purified as described previously (Jehle et al., 2009)
Kd [1]: 30 ± 16 µM | dH [1]: 3.24 ± 0.432 kcal/mol | Kd [2]: 2 ± 2 µM | dH [2]: 8.77 ± 3.96 kcal/mol | Kd [3]: 36 ± 2 µM | dH [3]: 9.33 ± 0.527 kcal/mol | koff [4]: 400 s⁻¹ | kon [4]: 1.1e+07 M⁻¹ s⁻¹

B2: H104Q-ACD (HSPB5-ACD with His-104 replaced by Gln) (domain or fragment, human, UniProt P02511 64-152, looked up)
chain: GLSEMRLEKDRFSVNLDVKHFSPEELKVKVLGDVIEVHGKQEERQDEHGFISREFHRKYRIPADVDPLTITSSLSSDGVLTVNGPRKQV
notes: HSPB5 (alphaB-crystallin), human, alpha-crystallin domain, residues 64-152, with H104Q; source: growth and purification similar to that of wild-type proteins (Jehle et al., 2009)
Kd [5]: 100 to 500 µM

B3: H104K-ACD (HSPB5-ACD with His-104 replaced by Lys) (domain or fragment, human, UniProt P02511 64-152, looked up)
chain: GLSEMRLEKDRFSVNLDVKHFSPEELKVKVLGDVIEVHGKKEERQDEHGFISREFHRKYRIPADVDPLTITSSLSSDGVLTVNGPRKQV
notes: HSPB5 (alphaB-crystallin), human, alpha-crystallin domain, residues 64-152, with H104K; source: growth and purification similar to that of wild-type proteins (Jehle et al., 2009)
Kd [5]: > 1000 µM

Binder: B4
stoichiometry N [6]: ~24 subunits | stoichiometry N [7]: ~36 subunits per oligomer

binding result [8]: binds | binding result [9]: binds
B5: bovine αLactalbumin (natural protein, UniProt P00711 20-142, looked up)
chain: EQLTKCEVFRELKDLKGYGGVSLPEWVCTTFHTSGYDTQAIVQNNDSTEYGLFQINNKIWCKDDQNPHSSNICNISCDKFLDDDLTDDIMCVKKILDKVGINYWLAHKALCSEKLDQWLCEKL
notes: alpha-lactalbumin, bovine, Sigma L6010; Model client protein; source: bought: Sigma (L6010)

Binder: B6
binding result [10]: binds | stoichiometry N [6]: ~41 subunits

Binder: B7
binding result [6]: binds
